No end group written: not given here.
Key:
Experiment in all cases: cell-based or functional assay
[1] = target: T1, FPRL-1 (formyl peptide receptor like-1) receptor (human, UniProt P25090 1-351)
T1 sequence: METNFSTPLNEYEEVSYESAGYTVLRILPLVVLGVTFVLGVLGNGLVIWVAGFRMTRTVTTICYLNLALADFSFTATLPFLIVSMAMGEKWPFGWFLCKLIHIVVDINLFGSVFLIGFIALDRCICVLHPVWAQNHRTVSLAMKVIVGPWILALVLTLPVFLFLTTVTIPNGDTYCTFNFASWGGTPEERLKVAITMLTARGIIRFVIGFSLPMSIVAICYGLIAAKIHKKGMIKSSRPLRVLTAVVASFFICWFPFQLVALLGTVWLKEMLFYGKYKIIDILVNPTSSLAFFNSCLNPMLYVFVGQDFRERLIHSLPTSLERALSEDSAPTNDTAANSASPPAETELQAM

[2] = target: T1, FPRL-1 (formyl peptide receptor like-1) …; remark: listed apart in the source
[3] = target: T1, FPRL-1 (formyl peptide receptor like-1) …; remark: listed apart in the source
[4] = target: T1, FPRL-1 (formyl peptide receptor like-1) …; remark: listed apart in the source

WKYMVM (not fully specified (residue 6)) [W-peptide]
Expression of MMP-12 in MonoMac 6 cells, fold induction at 3 h, W-peptide (1 µM) [1]: 1.51 fold induction
Expression of IL-8 in MonoMac 6 cells, fold induction at 3 h, W-peptide (1 µM) [2]: 1.54 fold induction
Migration Index of MonoMac6 cells, W-peptide (10 nM) [3]: 0.95 migration index (fold over control medium)
Migration Index of MonoMac6 cells, W-peptide (100 nM) [3]: 1.23 migration index (fold over control medium)
Migration Index of MonoMac6 cells, W-peptide (1 µM) [3]: 2.46 migration index (fold over control medium)
Expression of TNFα in MonoMac 6 cells, fold induction at 3 h, W-peptide (1 µM) [4]: 1.03 fold induction

Source: patent US20020119494A1 (Boehringer Ingelheim, published 2002)
